Experimental data taken from patent US20200040057A1 (IMMATICS BIOTECHNOLOGIES, published 2020).

Columns and labels:
HLA-B*07 [1] = target: HLA-B*07 (human); experiment: UV peptide exchange ELISA; ++ = yield >20%
HLA-B*07 [2] = target: HLA-B*07 (human); experiment: UV peptide exchange ELISA; + = yield >10%

B1: EPNPVEEIF (peptide)
peptide: EPNPVEEIF
For B1, which peptide exchange yield (HLA-B*07 [1]) is on record?
The peptide exchange yield was 20 to 50%.

B2: FLIPRAGWLAGL (peptide)
peptide: FLIPRAGWLAGL
For B2, which peptide exchange yield (HLA-B*07 [1]) is on record?
Its peptide exchange yield is 20 to 50%.

B3: KSKQVITLL (peptide)
peptide: KSKQVITLL
Which peptide exchange yield (HLA-B*07 [2]) does the source give for B3 here?
Its peptide exchange yield is 10 to 20%.

B4: ALLLRGVTL (peptide)
peptide: ALLLRGVTL
With B4 as the binder, how does the peptide exchange yield (HLA-B*07 [1]) read?
Its peptide exchange yield is 20 to 50%.

B5: KPSAVKDSIY (peptide)
peptide: KPSAVKDSIY
Which peptide exchange yield (HLA-B*07 [1]) does the source give for B5 here?
The peptide exchange yield was 20 to 50%.

B6: VPAHLVAA (peptide)
peptide: VPAHLVAA
B6 was tested. Which peptide exchange yield (HLA-B*07 [1]) did it give?
Its peptide exchange yield is 20 to 50%.

B7: LPASAEPKGTM (peptide)
peptide: LPASAEPKGTM
Which peptide exchange yield (HLA-B*07 [1]) does the source give for B7 here?
The peptide exchange yield was 20 to 50%.

B8: YPLQQTNVY (peptide)
peptide: YPLQQTNVY
For B8, which peptide exchange yield (HLA-B*07 [2]) is on record?
Its peptide exchange yield is 10 to 20%.

B9: IAYPSLREAAL (peptide)
peptide: IAYPSLREAAL
With B9 as the binder, how does the peptide exchange yield (HLA-B*07 [1]) read?
The peptide exchange yield was 20 to 50%.

B10: SQRPPATSQA (peptide)
peptide: SQRPPATSQA
With B10 as the binder, how does the peptide exchange yield (HLA-B*07 [1]) read?
Its peptide exchange yield is 20 to 50%.

B11: SVIGPNSRL (peptide)
peptide: SVIGPNSRL
How did the peptide exchange yield (HLA-B*07 [1]) turn out when B11 was run?
The peptide exchange yield was 20 to 50%.

B12: IALMKLAGPL (peptide)
peptide: IALMKLAGPL
For B12, which peptide exchange yield (HLA-B*07 [1]) is on record?
The peptide exchange yield was 20 to 50%.

B13: MPPLLIVAF (peptide)
peptide: MPPLLIVAF
With B13 as the binder, how does the peptide exchange yield (HLA-B*07 [1]) read?
The peptide exchange yield was 20 to 50%.

B14: SPLIGDFPAF (peptide)
peptide: SPLIGDFPAF
With B14 as the binder, how does the peptide exchange yield (HLA-B*07 [1]) read?
The peptide exchange yield was 20 to 50%.

B15: MPEADLKRIF (peptide)
peptide: MPEADLKRIF
How did the peptide exchange yield (HLA-B*07 [1]) turn out when B15 was run?
Its peptide exchange yield is 20 to 50%.

B16: TVYGEPRKL (peptide)
peptide: TVYGEPRKL
For B16, which peptide exchange yield (HLA-B*07 [1]) is on record?
The peptide exchange yield was 20 to 50%.

B17: TDTPSTTPTTI (peptide)
peptide: TDTPSTTPTTI
B17 was tested. Which peptide exchange yield (HLA-B*07 [1]) did it give?
Its peptide exchange yield is 20 to 50%.

B18: MALSVLRLAL (peptide)
peptide: MALSVLRLAL
Which peptide exchange yield (HLA-B*07 [1]) does the source give for B18 here?
Its peptide exchange yield is 20 to 50%.

B19: AAHEFGHVL (peptide)
peptide: AAHEFGHVL
With B19 as the binder, how does the peptide exchange yield (HLA-B*07 [1]) read?
The peptide exchange yield was 20 to 50%.

B20: LPMPAITWY (peptide)
peptide: LPMPAITWY
How did the peptide exchange yield (HLA-B*07 [1]) turn out when B20 was run?
The peptide exchange yield was 20 to 50%.

B21: FTVSSSSAM (peptide)
peptide: FTVSSSSAM
Which peptide exchange yield (HLA-B*07 [1]) does the source give for B21 here?
Its peptide exchange yield is 20 to 50%.

B22: TPTRPLPSA (peptide)
peptide: TPTRPLPSA
For B22, which peptide exchange yield (HLA-B*07 [1]) is on record?
The peptide exchange yield was 20 to 50%.

B23: AVSSHHNVI (peptide)
peptide: AVSSHHNVI
With B23 as the binder, how does the peptide exchange yield (HLA-B*07 [1]) read?
Its peptide exchange yield is 20 to 50%.

B24: LPLLAGTLLL (peptide)
peptide: LPLLAGTLLL
B24 was tested. Which peptide exchange yield (HLA-B*07 [1]) did it give?
The peptide exchange yield was 20 to 50%.

B25: KPGLPGLK (peptide)
peptide: KPGLPGLK
B25 was tested. Which peptide exchange yield (HLA-B*07 [2]) did it give?
The peptide exchange yield was 10 to 20%.

B26: APAAPAAVPS (peptide)
peptide: APAAPAAVPS
For B26, which peptide exchange yield (HLA-B*07 [1]) is on record?
The peptide exchange yield was 20 to 50%.

B27: EPLSVTASY (peptide)
peptide: EPLSVTASY
Which peptide exchange yield (HLA-B*07 [1]) does the source give for B27 here?
The peptide exchange yield was 20 to 50%.

B28: KATEYVHSL (peptide)
peptide: KATEYVHSL
With B28 as the binder, how does the peptide exchange yield (HLA-B*07 [2]) read?
Its peptide exchange yield is 10 to 20%.

B29: MPREDAHF (peptide)
peptide: MPREDAHF
How did the peptide exchange yield (HLA-B*07 [2]) turn out when B29 was run?
The peptide exchange yield was 10 to 20%.

B30: LPPHIFAI (peptide)
peptide: LPPHIFAI
B30 was tested. Which peptide exchange yield (HLA-B*07 [1]) did it give?
Its peptide exchange yield is 20 to 50%.
